Reference: patent US20180155451A1 (published 2018)

B1: GpH7-A5/GpH7-B3 variant (T335_04F)/GpL16-k0 (antibody, human IgG1, kappa)
heavy 1: not shown
heavy 2: not shown
light: DIVMTQSPLSLPVTPGEPASISCQASESLVHSNRNTYLHWYLQKPGQSPQLLIYKVSNRFSGVPDRFSGSGSGTDFTLKISRVEAEDVGVYYCSQNTHVPPTFGQGTKVEIERTVAAPSVFIFPPSDEQLKSGTASVVCLLNNFYPREAKVQWKVDNALQSGNSQESVTEQDSKDSTYSLSSTLTLSKADYEKHKVYACEVTHQGLSSPVTKSFNRGEC
notes: Heterodimerized; only the B3 chain altered; also called He Ab T335_04F
B2: GpH7-A5/GpH7-B3 variant (D265_10E)/GpL16-k0 (antibody, human IgG1, kappa)
heavy 1: not shown
heavy 2: not shown
light: B1 light
notes: Heterodimerized; only the B3 chain altered; also called He Ab D265_10E
B3: GpH7-A5/GpH7-B3 variant (I336_09D)/GpL16-k0 (antibody, human IgG1, kappa)
heavy 1: not shown
heavy 2: not shown
light: B1 light
notes: Heterodimerized; only the B3 chain altered; also called He Ab I336_09D
B4: GpH7-A5/GpH7-B3 variant (H268_13S)/GpL16-k0 (antibody, human IgG1, kappa)
heavy 1: not shown
heavy 2: not shown
light: B1 light
notes: Heterodimerized; only the B3 chain altered; also called He Ab H268_13S
B5: GpH7-A5/GpH7-B3 variant (A330_10E)/GpL16-k0 (antibody, human IgG1, kappa)
heavy 1: not shown
heavy 2: not shown
light: B1 light
notes: Heterodimerized; only the B3 chain altered; also called He Ab A330_10E
B6: GpH7-A5/GpH7-B3 variant (H268_10E)/GpL16-k0 (antibody, human IgG1, kappa)
heavy 1: not shown
heavy 2: not shown
light: B1 light
notes: Heterodimerized; only the B3 chain altered; also called He Ab H268_10E
B7: GpH7-A5/GpH7-B3 variant (H268_09D)/GpL16-k0 (antibody, human IgG1, kappa)
heavy 1: not shown
heavy 2: not shown
light: B1 light
notes: Heterodimerized; only the B3 chain altered; also called He Ab H268_09D
B8: GpH7-A5/GpH7-B3 variant (I336_11K)/GpL16-k0 (antibody, human IgG1, kappa)
heavy 1: not shown
heavy 2: not shown
light: B1 light
notes: Heterodimerized; only the B3 chain altered; also called He Ab I336_11K
B9: GpH7-A5/GpH7-B3 variant (H268_18N)/GpL16-k0 (antibody, human IgG1, kappa)
heavy 1: not shown
heavy 2: not shown
light: B1 light
notes: Heterodimerized; only the B3 chain altered; also called He Ab H268_18N
B10: GpH7-A5/GpH7-B3 variant (H268_01G)/GpL16-k0 (antibody, human IgG1, kappa)
heavy 1: not shown
heavy 2: not shown
light: B1 light
notes: Heterodimerized; only the B3 chain altered; also called He Ab H268_01G
B11: GpH7-A5/GpH7-B3 variant (A330_01G)/GpL16-k0 (antibody, human IgG1, kappa)
heavy 1: not shown
heavy 2: not shown
light: B1 light
notes: Heterodimerized; only the B3 chain altered; also called He Ab A330_01G
B12: GpH7-A5/GpH7-B3 variant (I336_08L)/GpL16-k0 (antibody, human IgG1, kappa)
heavy 1: not shown
heavy 2: not shown
light: B1 light
notes: Heterodimerized; only the B3 chain altered; also called He Ab I336_08L
B13: GpH7-A5/GpH7-B3 variant (A330_19Q)/GpL16-k0 (antibody, human IgG1, kappa)
heavy 1: not shown
heavy 2: not shown
light: B1 light
notes: Heterodimerized; only the B3 chain altered; also called He Ab A330_19Q
B14: GpH7-A5/GpH7-B3 variant (A330_20W)/GpL16-k0 (antibody, human IgG1, kappa)
heavy 1: not shown
heavy 2: not shown
light: B1 light
notes: Heterodimerized; only the B3 chain altered; also called He Ab A330_20W
B15: GpH7-A5/GpH7-B3 variant (A330_04F)/GpL16-k0 (antibody, human IgG1, kappa)
heavy 1: not shown
heavy 2: not shown
light: B1 light
notes: Heterodimerized; only the B3 chain altered; also called He Ab A330_04F
B16: GpH7-B3 variant (I336_11K)/GpL16-k0 (antibody, human IgG1, kappa)
heavy: not shown
light: B1 light
notes: Homodimerized; both H chains altered; also called Ho Ab I336_11K
B17: GpH7-B3 variant (Y300_19Q)/GpL16-k0 (antibody, human IgG1, kappa)
heavy: not shown
light: B1 light
notes: Homodimerized; both H chains altered; also called Ho Ab Y300_19Q
B18: GpH7-B3 variant (Y300_13S)/GpL16-k0 (antibody, human IgG1, kappa)
heavy: not shown
light: B1 light
notes: Homodimerized; both H chains altered; also called Ho Ab Y300_13S
B19: GpH7-B3 variant (T335_08L)/GpL16-k0 (antibody, human IgG1, kappa)
heavy: not shown
light: B1 light
notes: Homodimerized; both H chains altered; also called Ho Ab T335_08L
B20: GpH7-B3 variant (S337_15Y)/GpL16-k0 (antibody, human IgG1, kappa)
heavy: not shown
light: B1 light
notes: Homodimerized; both H chains altered; also called Ho Ab S337_15Y
B21: GpH7-B3 variant (T335_16H)/GpL16-k0 (antibody, human IgG1, kappa)
heavy: not shown
light: B1 light
notes: Homodimerized; both H chains altered; also called Ho Ab T335_16H
B22: GpH7-B3 variant (T335_07I)/GpL16-k0 (antibody, human IgG1, kappa)
heavy: not shown
light: B1 light
notes: Homodimerized; both H chains altered; also called Ho Ab T335_07I
B23: GpH7-B3 variant (Y300_06M)/GpL16-k0 (antibody, human IgG1, kappa)
heavy: not shown
light: B1 light
notes: Homodimerized; both H chains altered; also called Ho Ab Y300_06M
B24: GpH7-B3 variant (T335_11K)/GpL16-k0 (antibody, human IgG1, kappa)
heavy: not shown
light: B1 light
notes: Homodimerized; both H chains altered; also called Ho Ab T335_11K
B25: GpH7-B3 variant (S337_08L)/GpL16-k0 (antibody, human IgG1, kappa)
heavy: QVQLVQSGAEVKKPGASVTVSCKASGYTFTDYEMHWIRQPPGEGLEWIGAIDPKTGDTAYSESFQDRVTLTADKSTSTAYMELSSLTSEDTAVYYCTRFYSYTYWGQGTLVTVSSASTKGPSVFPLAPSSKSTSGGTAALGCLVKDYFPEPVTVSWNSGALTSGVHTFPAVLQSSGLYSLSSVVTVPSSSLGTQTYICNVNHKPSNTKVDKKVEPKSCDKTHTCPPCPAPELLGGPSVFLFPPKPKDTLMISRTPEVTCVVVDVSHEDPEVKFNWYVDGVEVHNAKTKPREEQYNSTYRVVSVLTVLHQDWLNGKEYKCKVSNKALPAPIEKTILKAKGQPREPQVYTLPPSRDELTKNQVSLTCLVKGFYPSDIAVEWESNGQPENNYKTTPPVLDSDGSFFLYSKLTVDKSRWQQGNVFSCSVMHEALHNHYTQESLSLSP
light: B1 light
notes: Homodimerized; both H chains altered; also called Ho Ab S337_08L
B26: GpH7-B3 variant (Y296_06M)/GpL16-k0 (antibody, human IgG1, kappa)
heavy: not shown
light: B1 light
notes: Homodimerized; both H chains altered; also called Ho Ab Y296_06M
B27: GpH7-B3 variant (T335_20W)/GpL16-k0 (antibody, human IgG1, kappa)
heavy: not shown
light: B1 light
notes: Homodimerized; both H chains altered; also called Ho Ab T335_20W
B28: GpH7-B3 variant (T335_10E)/GpL16-k0 (antibody, human IgG1, kappa)
heavy: not shown
light: B1 light
notes: Homodimerized; both H chains altered; also called Ho Ab T335_10E
B29: GpH7-B3 variant (T335_09D)/GpL16-k0 (antibody, human IgG1, kappa)
heavy: not shown
light: B1 light
notes: Homodimerized; both H chains altered; also called Ho Ab T335_09D
B30: GpH7-B3 variant (I336_14T)/GpL16-k0 (antibody, human IgG1, kappa)
heavy: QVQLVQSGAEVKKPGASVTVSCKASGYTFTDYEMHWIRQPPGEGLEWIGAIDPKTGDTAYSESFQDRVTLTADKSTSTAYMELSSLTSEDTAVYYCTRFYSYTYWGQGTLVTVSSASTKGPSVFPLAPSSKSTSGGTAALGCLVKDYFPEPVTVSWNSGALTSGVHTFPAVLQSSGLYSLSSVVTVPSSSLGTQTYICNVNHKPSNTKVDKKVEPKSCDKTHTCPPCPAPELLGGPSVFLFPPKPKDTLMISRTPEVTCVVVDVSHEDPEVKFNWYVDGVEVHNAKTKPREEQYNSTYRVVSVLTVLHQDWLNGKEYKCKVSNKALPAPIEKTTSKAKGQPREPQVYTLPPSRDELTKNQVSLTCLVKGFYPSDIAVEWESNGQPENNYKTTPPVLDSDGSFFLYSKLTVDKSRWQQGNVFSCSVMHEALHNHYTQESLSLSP
light: B1 light
notes: Homodimerized; both H chains altered; also called Ho Ab I336_14T
B31: GpH7-B3 variant (Y300_03V)/GpL16-k0 (antibody, human IgG1, kappa)
heavy: not shown
light: B1 light
notes: Homodimerized; both H chains altered; also called Ho Ab Y300_03V
B32: GpH7-B3 variant (T335_12R)/GpL16-k0 (antibody, human IgG1, kappa)
heavy: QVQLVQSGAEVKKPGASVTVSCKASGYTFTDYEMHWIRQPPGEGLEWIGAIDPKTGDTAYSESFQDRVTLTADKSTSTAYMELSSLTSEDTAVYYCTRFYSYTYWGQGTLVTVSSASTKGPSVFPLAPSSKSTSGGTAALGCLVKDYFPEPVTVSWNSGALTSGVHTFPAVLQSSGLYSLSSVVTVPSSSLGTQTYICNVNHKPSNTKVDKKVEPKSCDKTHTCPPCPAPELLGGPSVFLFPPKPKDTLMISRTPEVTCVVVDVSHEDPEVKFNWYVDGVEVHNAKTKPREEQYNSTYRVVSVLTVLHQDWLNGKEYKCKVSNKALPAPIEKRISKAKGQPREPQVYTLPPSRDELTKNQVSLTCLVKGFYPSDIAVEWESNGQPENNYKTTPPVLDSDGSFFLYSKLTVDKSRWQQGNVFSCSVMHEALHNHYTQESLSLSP
light: B1 light
notes: Homodimerized; both H chains altered; also called Ho Ab T335_12R
B33: GpH7-B3 variant (T335_05P)/GpL16-k0 (antibody, human IgG1, kappa)
heavy: not shown
light: B1 light
notes: Homodimerized; both H chains altered; also called Ho Ab T335_05P
B34: GpH7-B3 variant (Y300_11K)/GpL16-k0 (antibody, human IgG1, kappa)
heavy: not shown
light: B1 light
notes: Homodimerized; both H chains altered; also called Ho Ab Y300_11K
B35: GpH7-B3 variant (Y296_16H)/GpL16-k0 (antibody, human IgG1, kappa)
heavy: not shown
light: B1 light
notes: Homodimerized; both H chains altered; also called Ho Ab Y296_16H
B36: GpH7-B3 variant (Y300_02A)/GpL16-k0 (antibody, human IgG1, kappa)
heavy: not shown
light: B1 light
notes: Homodimerized; both H chains altered; also called Ho Ab Y300_02A
B37: GpH7-B3 variant (S337_20W)/GpL16-k0 (antibody, human IgG1, kappa)
heavy: not shown
light: B1 light
notes: Homodimerized; both H chains altered; also called Ho Ab S337_20W
B38: GpH7-B3 variant (S337_10E)/GpL16-k0 (antibody, human IgG1, kappa)
heavy: not shown
light: B1 light
notes: Homodimerized; both H chains altered; also called Ho Ab S337_10E
B39: GpH7-B3 variant (T335_19Q)/GpL16-k0 (antibody, human IgG1, kappa)
heavy: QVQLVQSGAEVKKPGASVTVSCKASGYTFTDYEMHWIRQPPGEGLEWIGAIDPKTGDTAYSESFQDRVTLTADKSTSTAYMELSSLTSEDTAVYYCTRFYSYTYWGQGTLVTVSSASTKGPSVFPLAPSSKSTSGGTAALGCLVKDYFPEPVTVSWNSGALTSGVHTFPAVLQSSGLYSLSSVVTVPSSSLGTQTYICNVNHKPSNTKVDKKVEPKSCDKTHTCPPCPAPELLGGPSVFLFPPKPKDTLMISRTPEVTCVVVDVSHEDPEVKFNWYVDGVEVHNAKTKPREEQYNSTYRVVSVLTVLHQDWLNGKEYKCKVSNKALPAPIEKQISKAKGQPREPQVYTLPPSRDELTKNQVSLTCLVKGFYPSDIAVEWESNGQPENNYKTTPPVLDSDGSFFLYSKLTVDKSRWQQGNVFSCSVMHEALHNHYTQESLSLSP
light: B1 light
notes: Homodimerized; both H chains altered; also called Ho Ab T335_19Q
B40: GpH7-B3 variant (T335_15Y)/GpL16-k0 (antibody, human IgG1, kappa)
heavy: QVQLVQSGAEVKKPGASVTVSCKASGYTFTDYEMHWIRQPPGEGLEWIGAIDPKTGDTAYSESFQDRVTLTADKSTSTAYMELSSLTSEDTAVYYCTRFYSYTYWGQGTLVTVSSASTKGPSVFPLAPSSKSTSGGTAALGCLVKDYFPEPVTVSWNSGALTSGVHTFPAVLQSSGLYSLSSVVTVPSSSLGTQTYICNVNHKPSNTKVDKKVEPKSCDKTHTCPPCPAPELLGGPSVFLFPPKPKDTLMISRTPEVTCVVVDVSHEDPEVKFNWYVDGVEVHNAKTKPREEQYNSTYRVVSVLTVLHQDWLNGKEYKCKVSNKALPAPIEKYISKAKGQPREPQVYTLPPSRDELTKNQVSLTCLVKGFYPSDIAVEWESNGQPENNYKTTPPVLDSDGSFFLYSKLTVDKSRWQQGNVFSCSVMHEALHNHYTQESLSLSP
light: B1 light
notes: Homodimerized; both H chains altered; also called Ho Ab T335_15Y
B41: GpH7-B3 variant (Y300_14T)/GpL16-k0 (antibody, human IgG1, kappa)
heavy: not shown
light: B1 light
notes: Homodimerized; both H chains altered; also called Ho Ab Y300_14T
B42: GpH7-B3 variant (S337_09D)/GpL16-k0 (antibody, human IgG1, kappa)
heavy: not shown
light: B1 light
notes: Homodimerized; both H chains altered; also called Ho Ab S337_09D
B43: GpH7-B3 variant (I336_13S)/GpL16-k0 (antibody, human IgG1, kappa)
heavy: not shown
light: B1 light
notes: Homodimerized; both H chains altered; also called Ho Ab I336_13S
B44: GpH7-B3 variant (I336_12R)/GpL16-k0 (antibody, human IgG1, kappa)
heavy: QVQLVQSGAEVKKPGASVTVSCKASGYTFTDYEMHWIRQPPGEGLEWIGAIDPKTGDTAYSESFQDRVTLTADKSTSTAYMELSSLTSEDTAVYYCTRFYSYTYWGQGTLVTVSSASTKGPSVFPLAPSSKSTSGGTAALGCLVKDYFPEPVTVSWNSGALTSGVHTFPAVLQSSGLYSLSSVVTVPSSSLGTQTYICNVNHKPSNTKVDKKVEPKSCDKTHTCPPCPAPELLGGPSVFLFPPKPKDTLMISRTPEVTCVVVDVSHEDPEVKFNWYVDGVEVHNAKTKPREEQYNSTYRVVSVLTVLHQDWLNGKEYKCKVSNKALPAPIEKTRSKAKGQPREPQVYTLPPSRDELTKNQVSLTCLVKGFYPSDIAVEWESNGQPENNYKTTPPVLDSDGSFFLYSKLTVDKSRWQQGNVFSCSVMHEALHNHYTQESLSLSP
light: B1 light
notes: Homodimerized; both H chains altered; also called Ho Ab I336_12R
B45: GpH7-B3 variant (Y296_11K)/GpL16-k0 (antibody, human IgG1, kappa)
heavy: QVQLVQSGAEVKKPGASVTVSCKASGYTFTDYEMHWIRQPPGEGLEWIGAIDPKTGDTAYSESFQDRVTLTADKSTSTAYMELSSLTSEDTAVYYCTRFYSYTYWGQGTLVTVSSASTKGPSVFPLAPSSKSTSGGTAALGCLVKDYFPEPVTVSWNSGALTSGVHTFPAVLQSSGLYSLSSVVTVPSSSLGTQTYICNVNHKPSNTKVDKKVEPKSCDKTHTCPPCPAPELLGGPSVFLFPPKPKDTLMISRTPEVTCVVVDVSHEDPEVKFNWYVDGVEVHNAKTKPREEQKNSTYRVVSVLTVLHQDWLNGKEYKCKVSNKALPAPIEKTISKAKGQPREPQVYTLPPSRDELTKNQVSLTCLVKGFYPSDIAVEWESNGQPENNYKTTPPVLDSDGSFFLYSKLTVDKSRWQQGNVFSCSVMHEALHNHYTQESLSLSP
light: B1 light
notes: Homodimerized; both H chains altered; also called Ho Ab Y296_11K
B46: GpH7-B3 variant (Y300_08L)/GpL16-k0 (antibody, human IgG1, kappa)
heavy: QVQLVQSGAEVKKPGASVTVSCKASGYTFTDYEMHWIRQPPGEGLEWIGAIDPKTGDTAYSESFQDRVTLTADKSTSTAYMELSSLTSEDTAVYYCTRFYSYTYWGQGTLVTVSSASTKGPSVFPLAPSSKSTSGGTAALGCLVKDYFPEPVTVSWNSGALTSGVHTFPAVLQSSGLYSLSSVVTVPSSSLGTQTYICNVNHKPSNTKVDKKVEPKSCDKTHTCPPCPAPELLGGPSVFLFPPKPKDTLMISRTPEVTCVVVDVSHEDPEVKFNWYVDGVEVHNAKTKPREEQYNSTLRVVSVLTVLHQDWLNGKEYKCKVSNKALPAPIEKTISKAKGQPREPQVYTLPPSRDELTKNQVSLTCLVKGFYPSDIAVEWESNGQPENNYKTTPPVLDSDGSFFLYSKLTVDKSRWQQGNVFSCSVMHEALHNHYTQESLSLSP
light: B1 light
notes: Homodimerized; both H chains altered; also called Ho Ab Y300_08L
B47: GpH7-B3 variant (Y296_12R)/GpL16-k0 (antibody, human IgG1, kappa)
heavy: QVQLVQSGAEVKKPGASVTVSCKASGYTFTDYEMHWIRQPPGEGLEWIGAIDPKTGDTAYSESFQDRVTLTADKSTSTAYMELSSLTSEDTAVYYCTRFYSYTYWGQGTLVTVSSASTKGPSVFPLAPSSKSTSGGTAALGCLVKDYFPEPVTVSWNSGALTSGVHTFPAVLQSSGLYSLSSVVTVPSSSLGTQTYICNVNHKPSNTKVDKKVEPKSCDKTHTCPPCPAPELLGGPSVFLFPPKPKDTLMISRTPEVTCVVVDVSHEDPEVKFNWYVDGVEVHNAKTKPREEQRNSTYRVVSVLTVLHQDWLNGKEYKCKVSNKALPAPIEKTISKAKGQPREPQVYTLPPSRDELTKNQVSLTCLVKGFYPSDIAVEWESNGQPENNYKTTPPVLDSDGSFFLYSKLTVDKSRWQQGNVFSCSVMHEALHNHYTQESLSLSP
light: B1 light
notes: Homodimerized; both H chains altered; also called Ho Ab Y296_12R
B48: GpH7-B3 variant (S337_19Q)/GpL16-k0 (antibody, human IgG1, kappa)
heavy: not shown
light: B1 light
notes: Homodimerized; both H chains altered; also called Ho Ab S337_19Q
B49: GpH7-B3 variant (S337_07I)/GpL16-k0 (antibody, human IgG1, kappa)
heavy: not shown
light: B1 light
notes: Homodimerized; both H chains altered; also called Ho Ab S337_07I
B50: GpH7-B3 variant (Y300_20W)/GpL16-k0 (antibody, human IgG1, kappa)
heavy: not shown
light: B1 light
notes: Homodimerized; both H chains altered; also called Ho Ab Y300_20W
B51: GpH7-B3 variant (S337_06M)/GpL16-k0 (antibody, human IgG1, kappa)
heavy: not shown
light: B1 light
notes: Homodimerized; both H chains altered; also called Ho Ab S337_06M
B52: GpH7-B3 variant (Y296_20W)/GpL16-k0 (antibody, human IgG1, kappa)
heavy: not shown
light: B1 light
notes: Homodimerized; both H chains altered; also called Ho Ab Y296_20W
B53: GpH7-B3 variant (S337_04F)/GpL16-k0 (antibody, human IgG1, kappa)
heavy: not shown
light: B1 light
notes: Homodimerized; both H chains altered; also called Ho Ab S337_04F
B54: GpH7-B3 variant (T335_18N)/GpL16-k0 (antibody, human IgG1, kappa)
heavy: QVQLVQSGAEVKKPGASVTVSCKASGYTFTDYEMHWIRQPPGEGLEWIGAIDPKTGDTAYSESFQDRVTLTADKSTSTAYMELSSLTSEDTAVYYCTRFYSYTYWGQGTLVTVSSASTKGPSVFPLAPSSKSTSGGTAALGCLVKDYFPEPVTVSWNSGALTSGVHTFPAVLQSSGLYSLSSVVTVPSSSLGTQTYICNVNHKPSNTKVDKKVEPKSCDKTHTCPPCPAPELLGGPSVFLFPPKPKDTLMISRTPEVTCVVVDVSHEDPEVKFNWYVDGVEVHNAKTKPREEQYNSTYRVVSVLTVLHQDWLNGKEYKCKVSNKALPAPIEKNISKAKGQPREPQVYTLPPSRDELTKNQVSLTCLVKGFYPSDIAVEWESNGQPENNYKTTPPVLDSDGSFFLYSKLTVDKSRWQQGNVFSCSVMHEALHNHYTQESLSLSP
light: B1 light
notes: Homodimerized; both H chains altered; also called Ho Ab T335_18N
B55: GpH7-B3 variant (T335_06M)/GpL16-k0 (antibody, human IgG1, kappa)
heavy: not shown
light: B1 light
notes: Homodimerized; both H chains altered; also called Ho Ab T335_06M

biological target: T1, FcγRIa extracellular domain with C-terminal His tag (human, UniProt P12314 16-292); test: SPR (Biacore), captured antibody, FcγRIa analyte; relative to GpH7-A5/GpH7-B3/GpL16-k0 = 100
T1 construct: extracellular domain; Expressed in FreeStyle293 cells; used as analyte in Biacore; also called FcgRI; 1a; not shown: His tag at the C terminus
T1 sequence (P12314 16-292): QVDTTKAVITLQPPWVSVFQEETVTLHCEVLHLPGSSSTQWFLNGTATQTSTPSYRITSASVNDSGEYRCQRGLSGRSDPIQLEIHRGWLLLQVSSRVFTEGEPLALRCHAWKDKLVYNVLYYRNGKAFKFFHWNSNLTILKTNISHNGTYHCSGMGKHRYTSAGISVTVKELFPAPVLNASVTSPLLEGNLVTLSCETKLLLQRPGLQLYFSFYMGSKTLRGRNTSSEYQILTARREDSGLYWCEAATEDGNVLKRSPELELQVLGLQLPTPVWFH

He/Con_1a | Binder
105 % of control | B1
101 % of control | B2
104 % of control | B3
109 % of control | B4
107 % of control | B5
111 % of control | B6
110 % of control | B7
105 % of control | B8
108 % of control | B9
107 % of control | B10
106 % of control | B11
107 % of control | B12
105 % of control | B13
108 % of control | B14
106 % of control | B15

biological target: T1, FcγRIa extracellular domain with …; test: SPR (Biacore), captured antibody, FcγRIa analyte; relative to GpH7-B3/GpL16-k0 = 100

Ho/Con_1a | Binder
107 % of control | B16
110 % of control | B17
110 % of control | B18
105 % of control | B19
104 % of control | B20
104 % of control | B21
105 % of control | B22
111 % of control | B23
103 % of control | B24
105 % of control | B25
104 % of control | B26
104 % of control | B27
108 % of control | B28
107 % of control | B29
111 % of control | B30
112 % of control | B31
106 % of control | B32
106 % of control | B33
101 % of control | B34
105 % of control | B35

Ho/Con_1a | Binder
110 % of control | B36
104 % of control | B37
104 % of control | B38
105 % of control | B39
106 % of control | B40
110 % of control | B41
106 % of control | B42
110 % of control | B43
109 % of control | B44
102 % of control | B45
109 % of control | B46
103 % of control | B47
105 % of control | B48
105 % of control | B49
110 % of control | B50
102 % of control | B51
106 % of control | B52
105 % of control | B53
102 % of control | B54
106 % of control | B55
